Here are results for 2 substances from patent publication US20190382504A1.

What all share (test): FACS, peptide-pulsed T2 cells
On the technique in general: In flow cytometry, cells or beads pass a laser one at a time.

Assay [1] concerns the target ESO157 A1 peptide (…)/HLA-A*02:01 complex on T2 cells (human).
For assay [2], the target named is ESO157 A3 peptide (…)/HLA-A*02:01 complex on T2 cells (human).
In assay [3] the target is ESO157 A4 peptide (…)/HLA-A*02:01 complex on T2 cells (human).
For assay [4], the target named is ESO157 A5 peptide (…)/HLA-A*02:01 complex on T2 cells (human).
The target in assay [5] is ESO157 A6 peptide (…)/HLA-A*02:01 complex on T2 cells (human).
Assay [6] concerns the target ESO157 A7 peptide (…)/HLA-A*02:01 complex on T2 cells (human).
The target in assay [7] is ESO157 A8 peptide (…)/HLA-A*02:01 complex on T2 cells (human).
For assay [8], the target named is ESO157 wild type peptide (…)/HLA-A*02:01 complex on cells (human).
In assay [9] the target is HLA-A*02:01 on T2 cells without peptide loading (human).

For KO7 helper phage, the MFI is 92 in assay [1]; 100 in assay [2]; 97 in [3]; 101 in assay [4]; 91 in assay [5]; 84 in assay [6]. Besides, the MFI came out at 94 in assay [7], 136 in assay [8] and 97 in assay [9].
In the case of antibody BB7.2, the MFI in assay [1] amounted to 67000; in [2] it was 66100; in assay [3] it was 60300; in assay [4] it was 59000; in [5], 55800; in assay [6] it was 72900. In addition, the MFI worked out at 75000 in assay [7], 76000 in assay [8] and 53100 in [9].
